Laboratory results reported in patent US10159707B2, “Treatment of cancers with immunostimulatory HIV Tat derivative polypeptides” (PIN Pharma, Inc., priority 2013, dated 2018).
Entries after “also recorded” stand apart in the source; their conditions may differ.

B1: Nani-P3: Tat derivative polypeptide SEQ ID NO:4; TF SIVsmm, cysteine-rich murine βdefensin, C-terminal HIV-1 (protein)
chain: METPLKEQENSLESCREHSSSISEVDVPTPVSCLRKGGRCWNRCIGNTRQIGSCGVPFLKCCKRKPFTRKGLGISYGRKKRRQRRRAPQDSQTHQASLSKQPASQSRGDPTGPTESKKKVERETETDPFD
modifications: Tat derivative polypeptide
B2: Nani-P1: Tat derivative polypeptide SEQ ID NO:2; TF HIV-1, cysteine-rich HIV-1, C-terminal HIV-1 (protein)
chain: MEPVDANLEAWKHAGSQPRKTACTTCYCKKCCFHCQVCFTRKGLGISYGRKKRRQRRRAPQDSQTHQASLSKQPASQSRGDPTGPTESKKKVERETETDPFD
modifications: Tat derivative polypeptide

What was measured:
4T1 cells = assay: Repeated dosing of Nani-P2 and cyclophosphamide in 4T1 tumor-bearing mice; assay type: in vivo, mouse; conditions: cyclophosphamide 80 mg/kg IP weekly from day 10
Description: Four groups of 10 BALB/c mice were implanted with 1×10^4 4 T1 cells SC into the mammary fat pad. Treatment was initiated when tumor diameters reached 4-5 mm, on day 10. Control mice were injected IV with PBS at 3 days intervals, while alternating treatment mice received 3 doses of drug every 3 days in rotating 10 day cycles. Tumor burden (tumor size mm^3) was calculated using a standard formula. CY (cyclophosphamide alone) mice were injected IP weekly with 80 mg/kg per mouse beginning on day 10. Cy/Nani-P2 (cyclophosphamide first followed by Nani-P2) mice were first injected IP with cyclophosphamide (80 mg/kg) at 3 days intervals for three doses starting at day 10 and then injected IV with Nani-P2 (40 ng) at 3 days intervals for three doses in rotation. The cycle of 3 doses of CY followed by 3 doses of Nani-P2 was repeated until day 50. Nani-P2/CY (Nani-P2 first followed by cyclophosphamide) mice were first injected IV with Nani-P2 (40 ng) at 3 day intervals for 3 doses starting on day 10 and then injected i.p. with cyclophosphamide at 3 day intervals in rotation. The cycle of 3 doses of Nani-P2 followed by 3 doses of CY was repeated until day 50.

4T1 breast tumor = assay: 4T1 primary breast tumor growth in BALB/c mice; assay type: in vivo, mouse; conditions: 400 ng partially-purified, SC, days 0, 7, 14, 21 (Nani-P3 also 2 μg); from day 15, p<0.05
Description: BALB/c mice were injected (SC) with 1×10^4 4 T1, 1×10^5 TS/A or 2×10^5 SM1 cells, respectively, in the left mammary pad on day 0. […] The control group received PBS injection. […] Tumor burden (tumor volume) was measured and recorded three times weekly. Animals were sacrificed when tumors reached a volume of 15 mm in diameter and the tumors harvested and weighed.
The therapeutic effect of systemic administration of synthetic, Tat-derived compositions in murine models of breast cancer was investigated. […]

Row | Molecule | mice dead by day 42 (4T1 cells) | 4T1 tumor burden versus PBS control (4T1 breast tumor)
1 | O=P1(N(CCCl)CCCl)NCCCO1 (stereo not drawn) [cyclophosphamide, reference compound] | 10/10 | –
2 | B1 | – | less effective at suppressing 4T1 primary tumor growth; also recorded: no difference
3 | B2 | – | significantly reduced tumor burden; also recorded: significant
